Measured values as given in US20140087995A1 (published 2014).
Blank lines part the entries; values can stand above or below the binder they belong to. Numbered stars: 1 amine (or outer) side, 2 acyl side, 3 side chain; on linkers, the order of the positions; unused ones are H or OH. Bridge positions count the residues as written; N and C are the ends. Side chains are listed from the residue outwards. Ends that are not written are not given here. * marks the point of attachment. C20 diacid = O=C(O)CCCCCCCCCCCCCCCCCCC(=O)*; γGlu = O=C(O)[C@H](CCC(=O)[*:2])N[*:1]

Experiments:
[1] = target: T1, human calcitonin receptor (human, UniProt P30988 25-474); test: cell-based or functional assay
T1 sequence (looked up): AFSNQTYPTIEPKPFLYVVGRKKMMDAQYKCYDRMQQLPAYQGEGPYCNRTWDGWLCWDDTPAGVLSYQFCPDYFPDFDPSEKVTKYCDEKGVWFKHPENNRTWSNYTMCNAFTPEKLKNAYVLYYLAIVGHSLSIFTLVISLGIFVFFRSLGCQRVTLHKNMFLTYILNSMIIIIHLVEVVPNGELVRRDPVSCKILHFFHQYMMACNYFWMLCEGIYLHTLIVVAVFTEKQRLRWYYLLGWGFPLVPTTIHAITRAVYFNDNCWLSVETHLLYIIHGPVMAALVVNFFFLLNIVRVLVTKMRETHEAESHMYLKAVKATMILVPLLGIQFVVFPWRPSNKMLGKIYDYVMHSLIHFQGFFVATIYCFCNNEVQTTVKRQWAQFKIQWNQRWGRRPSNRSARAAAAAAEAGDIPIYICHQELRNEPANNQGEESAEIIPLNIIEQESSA

[2] = target: T2, human amylin receptor (amylin 3(a) receptor: human calcitonin receptor with RAMP-3) (human, UniProt P30988 25-474; O60896 24-148, limits assumed); test: SPA competition binding on membranes of BHK cells with human calcitonin receptor + RAMP-3; displacement of 125I-rat amylin (Assay V)
T2 construct: whole, on cells; Whole cells in the luciferase assay (Assay II a); also called hAmylin-R; hAmylinR
T2 sequence (looked up) 1: T1 sequence (looked up)
T2 sequence (looked up) 2: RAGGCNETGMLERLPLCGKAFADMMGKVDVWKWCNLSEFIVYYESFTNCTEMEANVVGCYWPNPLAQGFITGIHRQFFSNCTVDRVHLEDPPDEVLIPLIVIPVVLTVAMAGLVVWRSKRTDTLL
Protocol: The binding assay was performed using scintillation proximity assay (SPA) beads (RPNQ0001) from PerkinElmer and cell membranes from the Amylin 3(a)/CRE-luc cells (as described in Assay (II)) were used. Membranes were prepared in the following way; the cells were rinsed with PBS and incubated with Versene for approximately 5 min before harvesting. The cells were flushed with PBS and the cell-suspension was centrifuged for 5 min at 1000 rpm. Cells were homogenized (ultrathurrax) in a buffer containing 20 mM Na-HEPES and 10 mM EDTA (pH 7.4) and centrifuged at 20.000 rpm for 15 min. The resulting pellet was resuspended, homogenized and centrifuged (20.000 rpm, 15 min) in a buffer containing 20 mM Na-HEPES and 0.1 mM EDTA (pH 7.4, buffer 2). The resulting pellet was resuspended in buffer 2 and protein concentration was measured (BCA protein Assay, Pierce). The homogenate was kept cold during the whole procedure. The membranes were kept at −80° C. until use. The assay was performed in a 384 well Optiplate (PerkinElmer) in a total volume of 40 ul. Membranes were mixed with SPA beads. Final concentration of membranes 35 ng/μL final and SPA beads was 0.05 mg/well. Test-compounds were dissolved in DMSO and further diluted in assay buffer (50 mM Hepes, pH 7.4, 1 mM CaCl2, 5 mM MgCl₂, 0.1% OA and 0.02% Tween20). […] The final mixture was incubated with shaking at 400 rpm for 120 min at 25° C. prior to centrifugation (1500 rpm, 10 min). Samples were analyzed on TopCounter™ (Packard). The IC₅₀ was calculated using (one site binding competition analysis) GraphPad Prism5 as a measure of receptor affinity.

B2: N^α1N^α1-[(4S)-4-carboxy-4-(19-carboxynonadecanoylamino)butanoyl]-[Glu14,Arg17,Pro21,Pro27,Glu35]-h-amylin (peptide)
peptide: {C20 diacid-γGlu}-KCNTATCATQRLAEFLRHSSPNFGAIPSSTNVGSETY-NH2
modifications: disulfide 2-7
SMILES: CC[C@H](C)[C@H](NC(=O)[C@H](C)NC(=O)CNC(=O)[C@H](Cc1ccccc1)NC(=O)[C@H](CC(N)=O)NC(=O)[C@@H]1CCCN1C(=O)[C@H](CO)NC(=O)[C@H](CO)NC(=O)[C@H](Cc1c[nH]cn1)NC(=O)[C@H](CCCNC(=N)N)NC(=O)[C@H](CC(C)C)NC(=O)[C@H](Cc1ccccc1)NC(=O)[C@H](CCC(=O)O)NC(=O)[C@H](C)NC(=O)[C@H](CC(C)C)NC(=O)[C@H](CCCNC(=N)N)NC(=O)[C@H](CCC(N)=O)NC(=O)[C@@H](NC(=O)[C@H](C)NC(=O)[C@@H]1CSSC[C@H](NC(=O)[C@H](CCCCN)NC(=O)CC[C@H](NC(=O)CCCCCCCCCCCCCCCCCCC(=O)O)C(=O)O)C(=O)N[C@@H](CC(N)=O)C(=O)N[C@@H]([C@@H](C)O)C(=O)N[C@@H](C)C(=O)N[C@@H]([C@@H](C)O)C(=O)N1)[C@@H](C)O)C(=O)N1CCC[C@H]1C(=O)N[C@@H](CO)C(=O)N[C@@H](CO)C(=O)N[C@H](C(=O)N[C@@H](CC(N)=O)C(=O)N[C@H](C(=O)NCC(=O)N[C@@H](CO)C(=O)N[C@@H](CCC(=O)O)C(=O)N[C@H](C(=O)N[C@@H](Cc1ccc(O)cc1)C(N)=O)[C@@H](C)O)C(C)C)[C@@H](C)O
notes: also called compound 22
- Ratio hCT/hAmylin funct. [1]: 3.8 ratio
- IC50 [2]: 0.794 nM

B3: N^ε1-[(4S)-4-carboxy-4-(19-carboxynonadecanoylamino)butanoyl]-[Glu14,Arg17,Pro21,Pro27,Pro34,Pro37]-h-amylin (peptide)
peptide: K([γGlu-C20 diacid])CNTATCATQRLAEFLRHSSPNFGAIPSSTNVGPNTP-NH2
modifications: disulfide 2-7; N-terminus assumed
SMILES: CC[C@H](C)[C@H](NC(=O)[C@H](C)NC(=O)CNC(=O)[C@H](Cc1ccccc1)NC(=O)[C@H](CC(N)=O)NC(=O)[C@@H]1CCCN1C(=O)[C@H](CO)NC(=O)[C@H](CO)NC(=O)[C@H](Cc1c[nH]cn1)NC(=O)[C@H](CCCNC(=N)N)NC(=O)[C@H](CC(C)C)NC(=O)[C@H](Cc1ccccc1)NC(=O)[C@H](CCC(=O)O)NC(=O)[C@H](C)NC(=O)[C@H](CC(C)C)NC(=O)[C@H](CCCNC(=N)N)NC(=O)[C@H](CCC(N)=O)NC(=O)[C@@H](NC(=O)[C@H](C)NC(=O)[C@@H]1CSSC[C@H](NC(=O)[C@@H](N)CCCCNC(=O)CC[C@H](NC(=O)CCCCCCCCCCCCCCCCCCC(=O)O)C(=O)O)C(=O)N[C@@H](CC(N)=O)C(=O)N[C@@H]([C@@H](C)O)C(=O)N[C@@H](C)C(=O)N[C@@H]([C@@H](C)O)C(=O)N1)[C@@H](C)O)C(=O)N1CCC[C@H]1C(=O)N[C@@H](CO)C(=O)N[C@@H](CO)C(=O)N[C@H](C(=O)N[C@@H](CC(N)=O)C(=O)N[C@H](C(=O)NCC(=O)N1CCC[C@H]1C(=O)N[C@@H](CC(N)=O)C(=O)N[C@H](C(=O)N1CCC[C@H]1C(N)=O)[C@@H](C)O)C(C)C)[C@@H](C)O
- Ratio hCT/hAmylin funct. [1]: 0.9 ratio
- IC50 [2]: 0.214 nM

B4: N^ε1-[(4S)-4-carboxy-4-(19-carboxynonadecanoylamino)butanoyl]-[Asp14,Arg17,Pro21,Pro27,Pro34,Glu35]-h-amylin (peptide)
peptide: K([γGlu-C20 diacid])CNTATCATQRLADFLRHSSPNFGAIPSSTNVGPETY-NH2
modifications: disulfide 2-7; N-terminus assumed
SMILES: CC[C@H](C)[C@H](NC(=O)[C@H](C)NC(=O)CNC(=O)[C@H](Cc1ccccc1)NC(=O)[C@H](CC(N)=O)NC(=O)[C@@H]1CCCN1C(=O)[C@H](CO)NC(=O)[C@H](CO)NC(=O)[C@H](Cc1c[nH]cn1)NC(=O)[C@H](CCCNC(=N)N)NC(=O)[C@H](CC(C)C)NC(=O)[C@H](Cc1ccccc1)NC(=O)[C@H](CC(=O)O)NC(=O)[C@H](C)NC(=O)[C@H](CC(C)C)NC(=O)[C@H](CCCNC(=N)N)NC(=O)[C@H](CCC(N)=O)NC(=O)[C@@H](NC(=O)[C@H](C)NC(=O)[C@@H]1CSSC[C@H](NC(=O)[C@@H](N)CCCCNC(=O)CC[C@H](NC(=O)CCCCCCCCCCCCCCCCCCC(=O)O)C(=O)O)C(=O)N[C@@H](CC(N)=O)C(=O)N[C@@H]([C@@H](C)O)C(=O)N[C@@H](C)C(=O)N[C@@H]([C@@H](C)O)C(=O)N1)[C@@H](C)O)C(=O)N1CCC[C@H]1C(=O)N[C@@H](CO)C(=O)N[C@@H](CO)C(=O)N[C@H](C(=O)N[C@@H](CC(N)=O)C(=O)N[C@H](C(=O)NCC(=O)N1CCC[C@H]1C(=O)N[C@@H](CCC(=O)O)C(=O)N[C@H](C(=O)N[C@@H](Cc1ccc(O)cc1)C(N)=O)[C@@H](C)O)C(C)C)[C@@H](C)O
- Ratio hCT/hAmylin funct. [1]: 3.9 ratio
- hCTR funct. EC50 (pM) [1]: 1120 pM
- IC50 [2]: 0.196 nM

Next, values leading:

- Ratio hCT/hAmylin funct. [1]: 1.6 ratio
- IC50 [2]: 0.196 nM
B1: N^α1-[(4S)-4-carboxy-4-[[(4S)-4-carboxy-4-(19-carboxynonadecanoylamino)butanoyl]amino]butanoyl]-[Glu14,Arg17,Pro21,Pro27,Pro37]-h-amylin (peptide)
peptide: {C20 diacid-γGlu-γGlu}-KCNTATCATQRLAEFLRHSSPNFGAIPSSTNVGSNTP-NH2
modifications: disulfide 2-7
SMILES: CC[C@H](C)[C@H](NC(=O)[C@H](C)NC(=O)CNC(=O)[C@H](Cc1ccccc1)NC(=O)[C@H](CC(N)=O)NC(=O)[C@@H]1CCCN1C(=O)[C@H](CO)NC(=O)[C@H](CO)NC(=O)[C@H](Cc1c[nH]cn1)NC(=O)[C@H](CCCNC(=N)N)NC(=O)[C@H](CC(C)C)NC(=O)[C@H](Cc1ccccc1)NC(=O)[C@H](CCC(=O)O)NC(=O)[C@H](C)NC(=O)[C@H](CC(C)C)NC(=O)[C@H](CCCNC(=N)N)NC(=O)[C@H](CCC(N)=O)NC(=O)[C@@H](NC(=O)[C@H](C)NC(=O)[C@@H]1CSSC[C@H](NC(=O)[C@H](CCCCN)NC(=O)CC[C@H](NC(=O)CC[C@H](NC(=O)CCCCCCCCCCCCCCCCCCC(=O)O)C(=O)O)C(=O)O)C(=O)N[C@@H](CC(N)=O)C(=O)N[C@@H]([C@@H](C)O)C(=O)N[C@@H](C)C(=O)N[C@@H]([C@@H](C)O)C(=O)N1)[C@@H](C)O)C(=O)N1CCC[C@H]1C(=O)N[C@@H](CO)C(=O)N[C@@H](CO)C(=O)N[C@H](C(=O)N[C@@H](CC(N)=O)C(=O)N[C@H](C(=O)NCC(=O)N[C@@H](CO)C(=O)N[C@@H](CC(N)=O)C(=O)N[C@H](C(=O)N1CCC[C@H]1C(N)=O)[C@@H](C)O)C(C)C)[C@@H](C)O
notes: also called compound 14

- Ratio hCT/hAmylin funct. [1]: 4.5 ratio
- IC50 [2]: 0.148 nM
B5: N^ε1-[(4S)-4-carboxy-4-(19-carboxynonadecanoylamino)butanoyl]-[Ala14,Arg17,Pro21,Pro27,Pro34]-h-amylin (peptide)
peptide: K([γGlu-C20 diacid])CNTATCATQRLAAFLRHSSPNFGAIPSSTNVGPNTY-NH2
modifications: disulfide 2-7; N-terminus assumed
SMILES: CC[C@H](C)[C@H](NC(=O)[C@H](C)NC(=O)CNC(=O)[C@H](Cc1ccccc1)NC(=O)[C@H](CC(N)=O)NC(=O)[C@@H]1CCCN1C(=O)[C@H](CO)NC(=O)[C@H](CO)NC(=O)[C@H](Cc1c[nH]cn1)NC(=O)[C@H](CCCNC(=N)N)NC(=O)[C@H](CC(C)C)NC(=O)[C@H](Cc1ccccc1)NC(=O)[C@H](C)NC(=O)[C@H](C)NC(=O)[C@H](CC(C)C)NC(=O)[C@H](CCCNC(=N)N)NC(=O)[C@H](CCC(N)=O)NC(=O)[C@@H](NC(=O)[C@H](C)NC(=O)[C@@H]1CSSC[C@H](NC(=O)[C@@H](N)CCCCNC(=O)CC[C@H](NC(=O)CCCCCCCCCCCCCCCCCCC(=O)O)C(=O)O)C(=O)N[C@@H](CC(N)=O)C(=O)N[C@@H]([C@@H](C)O)C(=O)N[C@@H](C)C(=O)N[C@@H]([C@@H](C)O)C(=O)N1)[C@@H](C)O)C(=O)N1CCC[C@H]1C(=O)N[C@@H](CO)C(=O)N[C@@H](CO)C(=O)N[C@H](C(=O)N[C@@H](CC(N)=O)C(=O)N[C@H](C(=O)NCC(=O)N1CCC[C@H]1C(=O)N[C@@H](CC(N)=O)C(=O)N[C@H](C(=O)N[C@@H](Cc1ccc(O)cc1)C(N)=O)[C@@H](C)O)C(C)C)[C@@H](C)O
notes: also called compound 94
